Paper PMC7534208

Target: transportin 1 (TNPO1) (human (endogenous in HeLa)) (UniProt Q92973)
Experiment: proximity ligation

Chain of UniProt Q92973 (Q92973 whole entry): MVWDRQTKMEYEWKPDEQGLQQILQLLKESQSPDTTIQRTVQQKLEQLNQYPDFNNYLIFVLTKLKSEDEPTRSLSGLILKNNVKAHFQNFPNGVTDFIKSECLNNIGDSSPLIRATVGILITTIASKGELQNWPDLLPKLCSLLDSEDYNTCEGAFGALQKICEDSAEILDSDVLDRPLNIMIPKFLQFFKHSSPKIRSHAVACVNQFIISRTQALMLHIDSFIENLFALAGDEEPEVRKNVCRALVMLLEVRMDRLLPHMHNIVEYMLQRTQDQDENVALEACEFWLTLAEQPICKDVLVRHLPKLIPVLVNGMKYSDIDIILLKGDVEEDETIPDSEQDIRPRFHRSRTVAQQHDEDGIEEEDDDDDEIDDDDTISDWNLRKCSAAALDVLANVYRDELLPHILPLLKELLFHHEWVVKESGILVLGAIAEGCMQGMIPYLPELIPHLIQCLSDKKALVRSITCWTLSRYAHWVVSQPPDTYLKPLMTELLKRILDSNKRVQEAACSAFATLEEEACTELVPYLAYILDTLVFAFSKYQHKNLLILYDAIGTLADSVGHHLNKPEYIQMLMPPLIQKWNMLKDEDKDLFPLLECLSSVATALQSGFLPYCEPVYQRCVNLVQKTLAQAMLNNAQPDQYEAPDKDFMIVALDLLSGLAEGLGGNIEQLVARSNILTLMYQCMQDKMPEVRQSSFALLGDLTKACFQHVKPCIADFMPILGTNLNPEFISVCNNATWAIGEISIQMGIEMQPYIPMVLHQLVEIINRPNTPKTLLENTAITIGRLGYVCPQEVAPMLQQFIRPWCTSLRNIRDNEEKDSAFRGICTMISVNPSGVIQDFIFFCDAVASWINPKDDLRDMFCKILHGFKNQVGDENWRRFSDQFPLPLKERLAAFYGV

Substance: HIV-1 Rev (regulator of expression of virion proteins), HA-tagged (from UniProt P04618 1-116) (natural protein)
- PLA puncta per cell (puncta per cell): 26
